Read-outs that look alike come from different tables or passages of the source.
How the values were obtained:
YPet [1] = test: FRET or BRET
YPet [2] = test: FRET or BRET; remark: listed apart in the source

Substance | FRET efficiency, oxidized (0 mmol/L DTT) (YPet [1]) | FRET efficiency, reduced (10 mmol/L DTT) (YPet [1]) | FRET efficiency, oxidized (0 mmol/L DTT) (YPet [2]) | FRET efficiency, reduced (10 mmol/L DTT) (YPet [2])
ECFP | 0.288 | 0.376 | – | –
CyPet | 0.27 | 0.265 | 0.371 | 0.375

Source: paper PMC3158092
